{"source": "patent US7265263B1", "about": "“Potato transcription factors, methods of use thereof, and a method for enhancing tuber development” (Iowa State University Research Foundation, Inc., priority 2002, dated 2007)", "molecules": {"B1": {"name": "StBEL-05 protein from pGEM11Z (in vitro transcription/translation) (other)", "chain": "MYYQGTSDNTNIQADHQQRHNHGNSNNNNIQTLYLMNPNNYMQGYTTSDTQQQQQLLFLNSSPAASNALCHANIQHAPLQQQHFVGVPLPAVSLHDQINHHGLLQRMWNNQDQSQQVIVPSSTGVSATSCGGITTDLASQLAFQRPIPTPQHRQQQQQQGGLSLSLSPQLQQQISFNNNISSSSPRTNNVTIRGTLDGSSSNMVLGSKYLKAAQELLDEVVNIVGKSIKGDDQKKDNSMNKESMPLASDVNTNSSGGGESSSRQKNEVAVELTTAQRQELQMKKAKLLAMLEEVEQRYRQYHHQMQIIVLSFEQVAGIGSAKSYTQLALHAISKQFRCLKDAIAEQVKATSKSLGEEEGLGGKIEGSRLKFVDHHLRQQRALQQIGMMQPNAWRPQRGLPERAVSVLRAWLFEHFLHPYPKDSDKIMLAKQTGLTRSQVSNWFINARVRLWKPMVEEMYLEEVKNQEQNSTNTSGDNKNKETNISAPNEEKHPIITSSLLQDGITTTQAEISTSTISTSPTAGASLHHAHNFSFLGSFNMDNTTTTVDHIENNAKKQRNDMHKFSPSSILSSVDMEAKARESSNKGFTNPLMAAYAMGDFGRFDPHDQQMTANFHGNNGVSLTLGLPPSENLAMPVSQQNYLSNDLGSRSEMGSHYNRMGYENIDFQSGNKRFPTQLLPDFVTGNLGT", "notes": "35S-methionine labelled prey; also called p11Z-5"}}, "key": {"POTH1": {"system": "POTH1", "sequence (as listed by the source)": "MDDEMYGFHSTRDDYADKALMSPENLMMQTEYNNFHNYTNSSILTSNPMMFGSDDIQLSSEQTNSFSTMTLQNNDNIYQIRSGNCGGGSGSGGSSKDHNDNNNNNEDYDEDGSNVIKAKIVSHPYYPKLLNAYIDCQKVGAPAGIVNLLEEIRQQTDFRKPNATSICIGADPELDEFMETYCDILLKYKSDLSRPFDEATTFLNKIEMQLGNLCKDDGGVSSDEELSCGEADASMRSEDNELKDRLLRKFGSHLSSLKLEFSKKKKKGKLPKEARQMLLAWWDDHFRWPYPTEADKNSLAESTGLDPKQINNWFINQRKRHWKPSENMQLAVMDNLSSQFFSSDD", "experiment": "Yeast two-hybrid interaction with POTH1", "assay_type": "binding, Solanum tuberosum", "settings": "nutritional selection and lacZ activation, yeast AH109", "source_text": "The Matchmaker two-hybrid system (Clontech, Calif.) was used for the yeast two-hybrid screen. Yeast transformation and plasmid rescue into DH5-α E. coli cells were according to the manufacturer's instructions. Full-length POTH1 was cloned into the pBridge (Clontech, Calif.) vector and used as bait to screen the potato (S. tuberosum ‘Desireé’) stolon cDNA library in pAD-GAL4-2.1 (Stratagene, Calif.). Positive interactions were confirmed by cotransforming yeast strain AH109 with each purified pAD plasmid and pBridge: POTH1 and plating on -leucine/-tryptophan (transformation control) and -leucine/-tryptophan/-histidine/-adenine (selection) nutrient medium. Induction of the AH109 reporter gene, lacZ, was measured with a yeast β-galactosidase assay kit (Pierce Chemicals). β-galactosidase activity (FIG. 9B) was determined from a known density of yeast cells and calculated as 1000×OD420/time of color reaction (minutes)×volume of yeast culture (ml)×OD600.\nThe StBEL-05 deletion constructs were amplified by PCR, then cloned into the vector, pGAD, in-frame with the GAL4 activation domain. POTH1 deletion constructs were amplified by PCR, and cloned into pBridge (Clontech) in-frame with the GAL4 binding domain. Sequencing of selected cDNAs and constructs was performed at the Iowa State University DNA Facility. For deletion analysis, modified constructs of POTH1 were cloned into the pBridge vector for fusion with the DNA-binding domain of GAL4 (FIG. 10A). For StBEL-05, constructs were cloned into the pGAD vector for fusion with the activating domain of GAL4 (FIG. 10B). Deletion constructs were made from both the amino and carboxy termini. These mutants were then tested for interaction in the yeast two-hybrid system by cotransforming into yeast strain AH109 with the corresponding full-length partner (StBEL-05 in pGAL4 or POTH1 in pBridge). All constructs were sequenced to verify that they were in-frame. Positive interactions were verified for lacZ induction by using a β-galactosidase assay (Pierce Chemical Company). For POTH1, seven deletion constructs were tested (FIG. 10A). For the BEL TFs, a fusion construct of StBEL-05 (653 aa of StBEL-05 sequence) and nine deletion constructs were tested (FIG. 10B)."}, "ga20ox1 promoter": {"system": "ga20ox1 promoter", "experiment": "Transcription assay, GUS reporter driven by ga20ox1 promoter in tobacco protoplasts", "assay_type": "cell-based, potato", "source_text": "The cauliflower mosaic virus (CaMV) 35S promoter in pBI221 (Clontech, Palo Alto, Calif.) was replaced by an enhancer fragment (-832 to -50) of the 35S promoter plus 980 bp of the ga20ox1 promoter to generate the pGAOP::β-glucuronidase (GUS) reporter construct. With this construct, the reporter GUS transcription level is augmented but its transcription may still be affected by the ga20ox1 promoter. A CaMV 35S promoter-driven luciferase (LUC) construct 35S-LUC (obtained from Dr. Takahashi, Dept. of Biological Sciences, Graduate School of Science, Univ. of Tokyo, Japan) was used as an internal control. Effector constructs were also generated by using pBI221 vector as a backbone, with the GUS gene replaced by the full-length cDNAs of either StBEL-05 or POTH1, downstream of the CaMV 35S promoter. Truncated cDNAs that encode the N-terminal protein-binding domains of StBEL-05 or POTH1 were used to generate the dominant negative constructs, StBEL5ΔC295 and POTH1ΔC122, respectively. The reporter construct with the mutated promoter was generated by site-directed PCR mutagenesis with oligos 5′-CTATTTGACTTC*ACACGGTTATTT-3′ (SEQ ID NO:23) and 5′-AAATAACCGTGTG*AAGTCAAATAG-3′ (SEQ ID NO:24).\nFully expanded leaves from three- to four-week-old tobacco plants were excised and placed in K3 basal media (Kao et al., “Nutritional Requirements for Growth of Vicia hajastana Cells and Protoplasts at a Very Low Density in Liquid Media,” Planta 126:105-110 (1975), which is hereby incorporated by reference in its entirety) supplemented with 0.4 M sucrose, 0.25% (w-v) cellulases (Karlan Research Products, Santa Rosa, CA), and 0.05% (w-v) macerases (Calbiochem, La Jolla, Calif.) and incubated for overnight at 28° C. After incubation, the liberated protoplasts were filtered through sterile cheesecloth into a Babcock bottle, and centrifuged for 10 minutes at 1000 rpm. Protoplasts were collected from the bottleneck area and washed once in K3 media with 0.4 M sucrose and resuspended in K3 media containing 0.4 M glucose to a final concentration of 4×10^6 protoplasts per milliliter. […]\nLuciferase assays were performed by injecting 100-μL luciferase substrate (Promega, Madison, Wis.) into 20 μL of extract and measuring the emitted photons for 15 seconds in a TD-20 luminometer (Turner Designs, Sunnyvale, Calif.). […] A fluorescence multiwell plate reader, Fluoroskan II (MTX labs, Vienna, Va.), was used to measure GUS activity at 365 nm (excitation) and 455 nm (emission). Each sample was measured three times for both LUC and GUS activity. Relative GUS-LUC activity was calculated by dividing the ratio of GUS activity to LUC activity from different effectors with the ratio from reporter plasmid alone. Relative activities calculated from three transfection replications were presented as a mean±SE."}}}
{"molecule": "B1", "values": [{"measurement": "interaction with POTH1", "setting": "POTH1", "value": "showed selective interaction"}, {"measurement": "relative GUS-LUC activity of the pGAOP::GUS reporter construct", "setting": "ga20ox1 promoter; co-transfected effector, reporter alone = 100%", "value": "decreased by more than half"}, {"measurement": "repression of promoter activity, reporter with point mutation in the binding site", "setting": "ga20ox1 promoter; mutated ga20ox1 promoter", "value": "no detectable repression"}]}
